Holding throughout (type): cell-based, human
For assay [1], the system named is J77.50.3 cell lines. Briefly: Cell spreading on ICR-1.1 coated plastic. As to conditions: 20 minutes at 37° C. The procedure:
To ascertain additional functional consequences of ICAM-R carboxyl terminal deletions, the Jurkat cell lines expressing the. ICAM-R variants described above were tested for the ability to adhere and spread on antibody coated plastic or to undergo antibody-mediated aggregation. Bacterial petri plates were coated with 50 μl drops of ICR-1.1 or w6/32 (10 μg/ml) (anti-MHC class I isotype matched control monoclonal antibody) in PBS for 120 minutes at 37° C. The plastic was rinsed twice prior to spotting 50 μl drops of J77.50.3 cell lines. Duplicate cell lines expressing these proteins at equivalent levels were tested. After 20 minutes at 37° C. the plate was flooded with 2% glutaraldehyde in PBS and incubated for 30 minutes to fix adherent cells. Fixed cells were rinsed twice with PBS and scored visually for the ability to flatten and spread. […] Weyrich et al., J. Clin. Invest., 95: 2297-2303 (1995) recently described the effect of a ICR-1.1 coated plastic surface on normal monocytes from peripheral blood. After two hours, these cells flattened down and spread with a similar overall morphology to that seen with the haFL expressing J77.50.3 cell line.

Assay [2] deals with J77.50.3 cell lines. Briefly: ICR-1.1 induced aggregation of J77.50.3 lines. The note with it: for ICR-1.1 induced aggregation: ICR-1.1 10 μg/ml, 1 and 24 hours; for Percent Aggregation: repeated experiments, Vector 17. The procedure:
One of these monoclonal antibodies (ICR-1.1) was used to induce aggregation of the J77.50.3 cell lines expressing either full length ICAM-R (haFL) or carboxy terminal variants of ICAM-R. ICR-1.1 was added to 200,000 cells at 10 μg/ml in 96 well plates and incubated 37° C. At 1 and 24 hours after incubation the wells were visually screened for aggregates.

The next assay has as its system J77.50.3 cells. In words: IL-2 induction in J77.50.3 lines expressing ICAM-R variants. The note with it: for IL-2 Induction (Fold Stimulation): repeated experiments, Vector 0.52. As to the method:
This dose of antibody alone provides minimal signalling for IL-2 release. The OKT3 treatment was removed and replaced with buffer alone or anti-ICAM-R (ICR-1.1) (10 ug/ml in PBS-D) and incubated at 37° C. for at least 2 hours. Monoclonal antibody coating was done in replicates of two or more wells and pooled to provide sufficient quantities of conditioned media for ELISA and/or bioassay. Two hundred fifty thousand Jurkat cells or transfectants thereof, were placed into antibody coated wells or buffer coated negative control wells in 0.1 ml of RPMI complete medium. Following incubation of about 16-24 hrs at 37° C. in a humidified atmosphere containing 5% CO2, the medium was transferred to a fresh 96 well round bottom plate, spun to pellet cells carried over and transferred to a fresh plate. Samples were frozen and stored at −70° C. IL-2 ELISAs were performed using commercially available kits (Biosource Intl. Co., Carmarille, Calif.) by making serial dilutions of the samples.
Experiments were performed using two independently isolated cell lines for each plasmid construct or the vector alone. Stable lines expressing similar levels of ICAM-R variants, as determined by indirect flow cytometry, were chosen for functional studies. Cells were costimulated with plate immobilized monoclonal antibodies ICR-1.1 and OKT3, and IL-2 release from the lines was quantitated by ELISA as previously described in Example 25C. Results were expressed as fold increase of IL-2 released from cells plated onto co-immobilized ICR-1.1 (10 μg/ml) plus OKt3 (1 μg/ml) divided by release from OKT3 ([…]) alone. The full length ICAM-R protein (haFL) gave 3.1 fold induction. The deletions gave the following fold inductions: haCTΔ505 induction was 1.5 fold, haCTΔ493 induction was 1.3 fold, haCTΔ484 was 0.8 fold. Vector control induction was 0.7 fold. […] In addition, removal of the residues 505-518 leads to the most significant reduction in co-stimulatory responsiveness. This implies that residues 505-518 play a relatively larger role in the response as compared to residues 484-505.

B1: haFL: HA-tagged full length ICAM-R expressed in J77.50.3 cells (protein, UniProt P32942 1-547, looked up)
chain: MATMVPSVLWPRACWTLLVCCLLTPGVQGQEFLLRVEPQNPVLSAGGSLFVNCSTDCPSSEKIALETSLSKELVASGMGWAAFNLSNVTGNSRILCSVYCNGSQITGSSNITVYRLPERVELAPLPPWQPVGQNFTLRCQVEDGSPRTSLTVVLLRWEEELSRQPAVEEPAEVTATVLASRDDHGAPFSCRTELDMQPQGLGLFVNTSAPRQLRTFVLPVTPPRLVAPRFLEVETSWPVDCTLDGLFPASEAQVYLALGDQMLNATVMNHGDTLTATATATARADQEGAREIVCNVTLGGERREARENLTVFSFLGPIVNLSEPTAHEGSTVTVSCMAGARVQVTLDGVPAAAPGQPAQLQLNATESDDGRSFFCSATLEVDGEFLHRNSSVQLRVLYGPKIDRATCPQHLKWKDKTRHVLQCQARGNPYPELRCLKEGSSREVPVGIPFFVNVTHNGTYQCQASSSRGKYTLVVVMDIEAGSSHFVPVFVAVLLTLGVVTIVLALMYVFREHQRSGSYHVREESTYLPLTSMQPTEAMGEEPSRAE
modifications: full-length HA tag
notes: HA-tagged full length ICAM-R expressed in J77.50.3 cells
For the molecule B1, the “spreading on ICR-1.1 coated plastic” value in the assay with J77.50.3 cell lines [1] is reported as “spread onto the ICR-1.1 coated plastic surface”. In addition, in the assay on J77.50.3 cell lines [2], the ICR-1.1 induced aggregation result is recorded as “aggregation competent” and the “Percent Aggregation” value was found to be 55%. Moreover, the “IL-2 Induction (Fold Stimulation)” value with J77.50.3 cells was determined as 5.4 Fold. Further, the “fold increase of IL-2 released (ICR-1.1 plus OKT3 divided by OKT3 alone)” value with J77.50.3 cells (vector control 0.7 fold) was 3.1 fold.

B2: Tyr479Phe: ICAM-R cytoplasmic domain point mutant (protein, UniProt P32942 30-547, looked up, variant Y479F)
Intercellular adhesion …: QEFLLRVEPQNPVLSAGGSLFVNCSTDCPSSEKIALETSLSKELVASGMGWAAFNLSNVTGNSRILCSVYCNGSQITGSSNITVYRLPERVELAPLPPWQPVGQNFTLRCQVEDGSPRTSLTVVLLRWEEELSRQPAVEEPAEVTATVLASRDDHGAPFSCRTELDMQPQGLGLFVNTSAPRQLRTFVLPVTPPRLVAPRFLEVETSWPVDCTLDGLFPASEAQVYLALGDQMLNATVMNHGDTLTATATATARADQEGAREIVCNVTLGGERREARENLTVFSFLGPIVNLSEPTAHEGSTVTVSCMAGARVQVTLDGVPAAAPGQPAQLQLNATESDDGRSFFCSATLEVDGEFLHRNSSVQLRVLYGPKIDRATCPQHLKWKDKTRHVLQCQARGNPYPELRCLKEGSSREVPVGIPFFVNVTHNGTYQCQASSSRGKYTLVVVMDIEAGSSHFVPVFVAVLLTLGVVTIVLALMFVFREHQRSGSYHVREESTYLPLTSMQPTEAMGEEPSRAE
As for B2, in the assay with J77.50.3 cell lines [1], the “spreading on ICR-1.1 coated plastic” value is on record as “spread onto the ICR-1.1 coated plastic surface”. In addition, the ICR-1.1 induced aggregation result in the assay on J77.50.3 cell lines [2] is listed as “aggregation competent”. Further, the “IL-2 Induction (Fold Stimulation)” value in the assay with J77.50.3 cells is on record as 4.9 Fold.

B3: Ser515Ala: ICAM-R cytoplasmic domain point mutant (protein, UniProt P32942 30-547, looked up, variant S515A)
Intercellular adhesion …: QEFLLRVEPQNPVLSAGGSLFVNCSTDCPSSEKIALETSLSKELVASGMGWAAFNLSNVTGNSRILCSVYCNGSQITGSSNITVYRLPERVELAPLPPWQPVGQNFTLRCQVEDGSPRTSLTVVLLRWEEELSRQPAVEEPAEVTATVLASRDDHGAPFSCRTELDMQPQGLGLFVNTSAPRQLRTFVLPVTPPRLVAPRFLEVETSWPVDCTLDGLFPASEAQVYLALGDQMLNATVMNHGDTLTATATATARADQEGAREIVCNVTLGGERREARENLTVFSFLGPIVNLSEPTAHEGSTVTVSCMAGARVQVTLDGVPAAAPGQPAQLQLNATESDDGRSFFCSATLEVDGEFLHRNSSVQLRVLYGPKIDRATCPQHLKWKDKTRHVLQCQARGNPYPELRCLKEGSSREVPVGIPFFVNVTHNGTYQCQASSSRGKYTLVVVMDIEAGSSHFVPVFVAVLLTLGVVTIVLALMYVFREHQRSGSYHVREESTYLPLTSMQPTEAMGEEPARAE
B3: in the assay with J77.50.3 cell lines [2], the “Percent Aggregation” value worked out at 15%. For the same molecule, in the assay with J77.50.3 cells, the “IL-2 Induction (Fold Stimulation)” value worked out at 2.1 Fold.

B4: Ser487Ala: ICAM-R cytoplasmic domain point mutant (protein, UniProt P32942 30-547, looked up, variant S487A)
Intercellular adhesion …: QEFLLRVEPQNPVLSAGGSLFVNCSTDCPSSEKIALETSLSKELVASGMGWAAFNLSNVTGNSRILCSVYCNGSQITGSSNITVYRLPERVELAPLPPWQPVGQNFTLRCQVEDGSPRTSLTVVLLRWEEELSRQPAVEEPAEVTATVLASRDDHGAPFSCRTELDMQPQGLGLFVNTSAPRQLRTFVLPVTPPRLVAPRFLEVETSWPVDCTLDGLFPASEAQVYLALGDQMLNATVMNHGDTLTATATATARADQEGAREIVCNVTLGGERREARENLTVFSFLGPIVNLSEPTAHEGSTVTVSCMAGARVQVTLDGVPAAAPGQPAQLQLNATESDDGRSFFCSATLEVDGEFLHRNSSVQLRVLYGPKIDRATCPQHLKWKDKTRHVLQCQARGNPYPELRCLKEGSSREVPVGIPFFVNVTHNGTYQCQASSSRGKYTLVVVMDIEAGSSHFVPVFVAVLLTLGVVTIVLALMYVFREHQRAGSYHVREESTYLPLTSMQPTEAMGEEPSRAE
As for B4, in the assay with J77.50.3 cell lines [2], the “Percent Aggregation” value turned out to be 61%. Also, in the assay with J77.50.3 cells, the “IL-2 Induction (Fold Stimulation)” value is on record as 2.0 Fold.

B5: Ser503Ala: ICAM-R cytoplasmic domain point mutant (protein, UniProt P32942 30-547, looked up, variant S503A)
Intercellular adhesion …: QEFLLRVEPQNPVLSAGGSLFVNCSTDCPSSEKIALETSLSKELVASGMGWAAFNLSNVTGNSRILCSVYCNGSQITGSSNITVYRLPERVELAPLPPWQPVGQNFTLRCQVEDGSPRTSLTVVLLRWEEELSRQPAVEEPAEVTATVLASRDDHGAPFSCRTELDMQPQGLGLFVNTSAPRQLRTFVLPVTPPRLVAPRFLEVETSWPVDCTLDGLFPASEAQVYLALGDQMLNATVMNHGDTLTATATATARADQEGAREIVCNVTLGGERREARENLTVFSFLGPIVNLSEPTAHEGSTVTVSCMAGARVQVTLDGVPAAAPGQPAQLQLNATESDDGRSFFCSATLEVDGEFLHRNSSVQLRVLYGPKIDRATCPQHLKWKDKTRHVLQCQARGNPYPELRCLKEGSSREVPVGIPFFVNVTHNGTYQCQASSSRGKYTLVVVMDIEAGSSHFVPVFVAVLLTLGVVTIVLALMYVFREHQRSGSYHVREESTYLPLTAMQPTEAMGEEPSRAE
Turning to B5, the “Percent Aggregation” value in the assay with J77.50.3 cell lines [2] came out at 64%. For the same molecule, in the assay on J77.50.3 cells, the “IL-2 Induction (Fold Stimulation)” value was 1.0 Fold.

B6: Ser489Ala: ICAM-R cytoplasmic domain point mutant (protein, UniProt P32942 30-547, looked up, variant S489A)
Intercellular adhesion …: QEFLLRVEPQNPVLSAGGSLFVNCSTDCPSSEKIALETSLSKELVASGMGWAAFNLSNVTGNSRILCSVYCNGSQITGSSNITVYRLPERVELAPLPPWQPVGQNFTLRCQVEDGSPRTSLTVVLLRWEEELSRQPAVEEPAEVTATVLASRDDHGAPFSCRTELDMQPQGLGLFVNTSAPRQLRTFVLPVTPPRLVAPRFLEVETSWPVDCTLDGLFPASEAQVYLALGDQMLNATVMNHGDTLTATATATARADQEGAREIVCNVTLGGERREARENLTVFSFLGPIVNLSEPTAHEGSTVTVSCMAGARVQVTLDGVPAAAPGQPAQLQLNATESDDGRSFFCSATLEVDGEFLHRNSSVQLRVLYGPKIDRATCPQHLKWKDKTRHVLQCQARGNPYPELRCLKEGSSREVPVGIPFFVNVTHNGTYQCQASSSRGKYTLVVVMDIEAGSSHFVPVFVAVLLTLGVVTIVLALMYVFREHQRSGAYHVREESTYLPLTSMQPTEAMGEEPSRAE
Take B6: the “Percent Aggregation” value with J77.50.3 cell lines [2] stood at 25%. In the assay with J77.50.3 cells, the “IL-2 Induction (Fold Stimulation)” value is 2.9 Fold.

The values above are taken from US20040248211A1, “ICAM-related protein” (priority 1992, published 2004).
